Experimental data from paper PMC2914788, “Phage-Derived Fully Human Monoclonal Antibody Fragments to Human Vascular Endothelial Growth Factor-C Block Its Interaction with VEGF Receptor-2 and 3” (PLoS ONE, 2010).

Target: T1, VC2.2.2 VH-myc (human)
T1 construct: as the VH of m13 (VC2.2.2), from Glu1 to Ser113; Chothia numbering; also called anti-VEGF-C VC2.2.2 VH; single VH-domain of VC2.2.2; source: E. coli (pHEN1), IPTG-induced, bacterial supernatant (ELISA); protein-A purified (SEC); not shown: myc, C-terminal, kept
Test: ELISA; bacterial supernatant of IPTG-induced cultures expressing VH-myc on ΔNΔC-VEGF-C or alpha-2-macroglobulin; detection with anti-myc and anti-mouse HRP or with protein-A-HRP
Details: one partner purified

- binding result: binds
B1: ΔNΔC-VEGF-C (variant not stated for the experiment) (ligand, human, UniProt P49767 112-227, looked up)
chain: AHYNTEILKSIDNEWRKTQCMPREVCIDVGKEFGVATNTFFKPPCVSVYRCGGCCNSEGLQCMNTSTSYLSKTLFEITVPLSQGPKPVTISFANHTSCRCMSKLDVYRQVHSIIRR
notes: fully processed ΔNΔC form of human VEGF-C; also called fully processed human VEGF-C
